Patent publication US20150037356A1 (AstraZeneca / MedImmune, published 2015)

Key:
[1] = target: T1, CD33 on U937 cells (UniProt P20138 18-364, limits assumed); assay: FACS on U937 cells
T1 construct: whole, on cells

[2] = target: T2, Siglec-5 on U937 cells (UniProt O15389 17-551, limits assumed); assay: FACS on U937 cells
T2 construct: whole, on cells
T2 sequence (looked up): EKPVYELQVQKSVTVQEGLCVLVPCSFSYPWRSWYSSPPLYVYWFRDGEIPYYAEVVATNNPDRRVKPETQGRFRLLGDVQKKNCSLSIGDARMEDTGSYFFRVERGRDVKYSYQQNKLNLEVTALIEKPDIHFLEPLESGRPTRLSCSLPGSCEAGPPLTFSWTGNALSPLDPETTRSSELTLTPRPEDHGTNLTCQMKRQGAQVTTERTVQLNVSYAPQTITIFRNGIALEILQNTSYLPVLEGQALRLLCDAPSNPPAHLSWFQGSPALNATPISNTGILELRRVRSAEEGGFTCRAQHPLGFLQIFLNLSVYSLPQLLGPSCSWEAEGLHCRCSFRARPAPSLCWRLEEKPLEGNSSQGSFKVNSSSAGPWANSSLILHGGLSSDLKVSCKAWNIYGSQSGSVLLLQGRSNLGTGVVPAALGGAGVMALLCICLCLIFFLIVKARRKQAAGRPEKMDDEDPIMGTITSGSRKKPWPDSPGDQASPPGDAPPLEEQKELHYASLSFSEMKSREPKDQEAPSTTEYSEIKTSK

[3] = target: T3, Siglec-9 on U937 cells (UniProt Q9Y336 18-463, limits assumed); assay: FACS on U937 cells
T3 construct: whole, on cells

[4] = target: T4, endogenous Siglec-15 on leukaemic cell lines (human, UniProt Q6ZMC9 20-328); assay: cell-based or functional assay
T4 sequence (looked up): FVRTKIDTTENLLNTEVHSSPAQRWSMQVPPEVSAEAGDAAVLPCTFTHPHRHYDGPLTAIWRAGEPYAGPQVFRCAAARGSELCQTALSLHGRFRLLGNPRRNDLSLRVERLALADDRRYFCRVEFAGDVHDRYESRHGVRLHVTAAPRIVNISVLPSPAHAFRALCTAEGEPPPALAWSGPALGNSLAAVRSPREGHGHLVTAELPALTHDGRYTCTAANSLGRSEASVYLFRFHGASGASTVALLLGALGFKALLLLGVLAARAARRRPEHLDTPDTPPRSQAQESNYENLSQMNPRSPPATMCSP

T1 sequence (P20138 18-364 limits assumed): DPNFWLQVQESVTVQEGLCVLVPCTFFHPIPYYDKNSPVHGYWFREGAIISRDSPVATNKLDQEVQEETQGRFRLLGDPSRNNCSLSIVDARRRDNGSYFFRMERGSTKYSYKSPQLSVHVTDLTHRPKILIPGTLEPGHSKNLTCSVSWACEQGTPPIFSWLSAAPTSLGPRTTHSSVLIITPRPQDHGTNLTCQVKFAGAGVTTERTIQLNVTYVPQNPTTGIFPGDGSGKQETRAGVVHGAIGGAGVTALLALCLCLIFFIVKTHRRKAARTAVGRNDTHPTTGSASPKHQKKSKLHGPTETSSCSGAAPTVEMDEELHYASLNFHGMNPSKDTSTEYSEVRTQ
T3 sequence (Q9Y336 18-463 limits assumed): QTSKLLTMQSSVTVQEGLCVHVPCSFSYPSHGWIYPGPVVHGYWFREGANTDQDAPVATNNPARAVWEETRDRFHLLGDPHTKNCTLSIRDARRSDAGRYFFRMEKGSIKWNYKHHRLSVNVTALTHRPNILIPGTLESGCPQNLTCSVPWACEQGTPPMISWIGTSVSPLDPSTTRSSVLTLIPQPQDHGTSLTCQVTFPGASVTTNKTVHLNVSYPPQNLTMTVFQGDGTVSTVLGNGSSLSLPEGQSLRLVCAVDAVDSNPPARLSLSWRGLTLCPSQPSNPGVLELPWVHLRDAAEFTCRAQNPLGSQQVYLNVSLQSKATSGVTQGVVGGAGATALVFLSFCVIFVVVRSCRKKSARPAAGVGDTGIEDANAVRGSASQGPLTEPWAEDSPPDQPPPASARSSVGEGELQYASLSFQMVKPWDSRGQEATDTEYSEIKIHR

B1: A9E8 monoclonal antibody (mouse IgG1 format) (antibody, V domains shown)
VH: QLQLQESGPGLVKPSETLSLTCAVSGASISNWWSWVRQPPGKGLEWIGEVHHSGVTTYKPSLKSRVTISVDNSKNQLSLKLTSVTAADTAVYYCAREFADDAFDIWGRGTMVTVSS
VL: SSELTQDPAVSVALGQTVRITCRGDSLRKYYASWYQQKPRQAPQLVIYHKNNRASGIPDRFSGSISGNTASLTITGAQAEDEAAYFCNSRDTSGNYLVFGGGTKVTVLG
notes: VH and VL from the phage scFv were cloned into a mouse IgG1 backbone and expressed as complete mouse IgG1; also called A9E8 antibody
[1]
  binding result: no binding
[2]
  binding result: no binding
[3]
  binding result: no binding
[4]
  half-life of endocytosis: 2.9 min
